T1: human CD19 exon1-3-his protein (human, UniProt P15391 20-186, limits assumed)
T1 construct: made in HEK293E cells; also called membrane-distal end; not shown: His tag
T1 sequence (looked up): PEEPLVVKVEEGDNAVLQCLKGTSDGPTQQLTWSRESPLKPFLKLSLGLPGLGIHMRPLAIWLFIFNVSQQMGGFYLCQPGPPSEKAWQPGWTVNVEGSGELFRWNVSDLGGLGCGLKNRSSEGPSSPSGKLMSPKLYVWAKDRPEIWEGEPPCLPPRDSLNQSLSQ

T2: Human CD19-his protein (human, UniProt P15391 20-291)
T2 construct: bought protein; also called human CD19 protein; recombinant human CD19-His; not shown: His tag
T2 sequence (looked up): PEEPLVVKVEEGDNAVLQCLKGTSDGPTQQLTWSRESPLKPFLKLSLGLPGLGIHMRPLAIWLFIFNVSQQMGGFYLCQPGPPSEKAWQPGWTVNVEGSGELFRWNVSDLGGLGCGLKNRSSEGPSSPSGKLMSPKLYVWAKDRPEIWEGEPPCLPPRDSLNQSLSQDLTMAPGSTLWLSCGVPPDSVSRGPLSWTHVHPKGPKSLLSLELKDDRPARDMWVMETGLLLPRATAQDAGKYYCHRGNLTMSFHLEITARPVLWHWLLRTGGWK

T3: murine CD19 protein (murine, UniProt P25918 17-287, limits assumed)
T3 construct: bought protein; also called commercial murine CD19
T3 sequence (looked up): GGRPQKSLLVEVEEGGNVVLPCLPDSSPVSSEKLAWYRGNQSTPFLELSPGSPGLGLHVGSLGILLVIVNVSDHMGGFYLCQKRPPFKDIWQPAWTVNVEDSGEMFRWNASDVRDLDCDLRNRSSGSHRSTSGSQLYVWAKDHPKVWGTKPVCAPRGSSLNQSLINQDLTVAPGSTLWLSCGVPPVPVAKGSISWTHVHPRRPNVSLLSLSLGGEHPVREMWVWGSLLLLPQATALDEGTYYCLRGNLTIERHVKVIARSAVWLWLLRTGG


Tests used:
[1] = molecular target: T1, human CD19 exon1-3-his protein; assay: ELISA, coated at 2 ug/mL
[2] = molecular target: T2, Human CD19-his protein; assay: ELISA, antibody at 0.0001 nM
[3] = molecular target: T2, Human CD19-his protein; assay: ELISA, antibody at 10 nM
[4] = molecular target: T3, murine CD19 protein; assay: ELISA, coated murine CD19
Method in brief: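 Plates coated overnight at 4° C with recombinant murine or monkey CD19 and blocked with 2% BSA. Chimeric antibodies, serially diluted from 100 nM, bound for 2 h at 37° C. TMB development for 10 min with OD450 read-out.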

[5] = molecular target: T2, Human CD19-his protein; assay: ELISA, antibody at 0.10 nM
[6] = molecular target: T2, Human CD19-his protein; assay: ELISA, antibody at 0.001 nM
[7] = molecular target: T2, Human CD19-his protein; assay: ELISA, antibody at 100 nM
[8] = molecular target: T2, Human CD19-his protein; assay: ELISA, antibody at 0.01 nM
[9] = molecular target: T2, Human CD19-his protein; assay: ELISA, antibody at 1.00 nM
[10] = molecular target: T2, Human CD19-his protein; assay: ELISA on coated human CD19-His
Experimental: Human CD19-his protein (purchased from ACROBiosystems, catalog number: CD9-H52H2) was diluted with PBS to a final concentration of 4 μg/mL, and then added to a 96-well ELISA plate at 100 μl/well. The plate was sealed with a plastic film and incubated overnight at 4° C., the plate was washed 2 times with PBS the next day, and then a blocking solution [PBS+2% (w/w) BSA] was added for blocking at room temperature for 2 h. The blocking solution was poured off, and 100 nM gradiently diluted CD19 chimeric antibody or control antibody was added at 50 μl/well. After incubation at 37° C. for 2 h, the plate was washed 3 times with PBS. […] TMB substrate was added at 50 μl/well, and incubated at room temperature for 10 min, and then a stop solution (1.0 N HCl) was added at 50 μl/well. The OD450 nm values were read by an ELISA microplate reader (Multimode Plate Reader, EnSight, purchased from Perkin Elmer).

Row | binding result [1] | OD450 [2] | OD450 [3] | binding result [4] | OD450 [5] | OD450 [6] | OD450 [7] | OD450 [8] | OD450 [9] | EC50 (read off the curve) [10] | Binder
1 | no binding | 0.05 | 1.75 | no binding | 1.33 | 0.08 | 1.77 | 0.27 | 1.93 | ~0.04 nM | F4.107.12 (antibody, human IgG1, V domains shown, human-murine chimeric antibody, human IgG1) VH: EVQLQQSGPELVKPGASVKMSCKASGYTFTSYVLHWVRQKPGQGLEWIGYFNPYNDGTEYNEKFKGKAILTSDKSSSTAYMELNSLTSEDSAVYYCVGGTYYYGSSYPFAYWGQGTLVTVST VL: DVVMTQISLSLPVSLGDQASISCRSSQSLIHSNGNTYLQWYLQKPGQSPKLLIYKVSNRLSGVPDRFSGSGSGTDFTLKISRVEAEDLGVYFCSQSTHVPYTFGGGTKLEIK
2 | no binding | 0.06 | 1.27 | no binding | 1.06 | 0.08 | 1.35 | 0.24 | 1.12 | ~0.03 nM | F4.15.9 (antibody, human IgG1, V domains shown, human-murine chimeric antibody, human IgG1) VH: QVQLQQSGPELVKPGASVKISCKASGYAFSSSWMNWLKQRPGQGLEWIGRIYPGDGDTNYNGKFKGKATLTADESSSTAYMQLSSLTSVDSAVYFCARGITTIITIAWFASWGQGTLVTVSA VL: QIVLSQSPTILSASPGEKVTMTCRASSSVSYMHWYQQKPGSSPKPWIYATSNLASGVPPRFSGSGSGTSYSLTISRVGAEDAATYYCQQWSSDPWTFGGGTKLEIK
3 | no binding | 0.09 | 1.55 | no binding | 0.85 | 0.18 | 1.52 | 0.24 | 1.6 | ~0.08 nM | F4.82.11 (antibody, human IgG1, V domains shown, human-murine chimeric antibody, human IgG1) VH: QVTLKESGPGILQASQTLSLTCSFSGFSLSTFGIGVGWVRQPSGKGLEWLAHIWWNDNKFFNTTLKNRLTLSKDPSNNQVFLKIASVDTADTATYYCARSRSALITTGLYAMDYWGQGTSVTVSS VL: DIQMTQTPSSLSASLGDRVTISCRSSQDISNYVNWYQQKPDGTVKVLINYTSRLHSGVPSRFSGSGSGTDYSLTISNLEQEDIASYFCQQGFTLPYTFGGGTKLEIK
4 | no binding | 0.05 | 1.56 | no binding | 0.33 | 0.06 | 1.49 | 0.09 | 1.11 | ~0.4 nM | F5.3.6 (antibody, human IgG1, V domains shown, human-murine chimeric antibody, human IgG1) VH: DVQLQESGPGLVKPSQSQSLTCSVTGYSITSGYYWNWIRQFPGNKLEWMGYISYDGSNNYNPSLKNRISITRDTSKNQFFLKLNSVTTEDTVTYYCARAPLTGDRYWYFDVWGTGTTVTVSS VL: DIVLTQSPASLAVSLGQRATISCRASQSVSTSSYSYMHWYQQKPGQTPKLLIKYASNLKSGVPARFSGSGSGTDFTLNIHPVEEEDTATYYCQHSWEIPPTFGGGTKLEIK
5 | no binding | 0.06 | 1.54 | no binding | 1.07 | 0.09 | 1.84 | 0.23 | 1.68 | ~0.06 nM | F4.125.12 (antibody, human IgG1, V domains shown, human-murine chimeric antibody, human IgG1) VH: EVKLVESGGGLVQPGGSLKLSCAASGFTFSTYTMSWVRQTPEKRLEWVAFISSGGGHINYPDTVKGRFTISRDNAKNTLYLQMSSLKSEDTAMYYCARHSYWFFDVWGAGTTVTVSS VL: DVQITQSPSYLAASPGETITINCRASKNIDTYLAWYQEKPGKTNKLLIYSGSTLQSGIPSRFRGGGSGTDFTLTICSLEPEDFAMYYCQQHNEYPLTFGAGTKLELK
6 | no binding | 0.05 | 1.43 | no binding | 0.57 | 0.06 | 1.69 | 0.13 | 1.42 | ~0.2 nM | F4.191.1 (antibody, human IgG1, V domains shown, human-murine chimeric antibody, human IgG1) VH: QVQLQQPGAELVRPGASVKLSCKASGYTFTSYWINWVKQRPGQGLEWIGNIHPSDSYTNYNQKFKDKATLTVDKSSSTAYMQFSSPTSEDSAVYYCTREDYYYGSNYDAMDYWGQGTSVTVSS VL: DIVMTQSHKFMSTSVGDRVNITCKASQDVGSSVAWYQQKPGQSPKLLIYWASTRHAGVPDRFTGSGSGADFTLTISNVQSEDLADYFCQQYSTYPLTFGAGTKLELK
7 | no binding | 0.05 | 1.92 | no binding | 0.76 | 0.06 | 2.02 | 0.12 | 1.63 | ~0.2 nM | F4.180.1 (antibody, human IgG1, V domains shown, human-murine chimeric antibody, human IgG1) VH: EVQLQQSAPELVKPGASVKMSCKTSGYTFTENIIHWVKQTHGKSLEWIGGINPDNGGTSYHQKFKGRTTLTIDKSSSTAYMELRSLTSDDSAVFFCARQAPLYWYFDIWGAGTTVTVSS VL: DIVLTQSPASLAVSLGQRATISCRASESVDSYGNSLMHWFQQKPGQPPRLLIYRASNLESGIPARFSGSGSRTDFTLTITPVEADDVATYYCQQSNEDPWTFGGGTKLEIK
8 | no binding | 0.06 | 1.73 | no binding | 1.11 | 0.08 | 1.84 | 0.27 | 1.79 | ~0.06 nM | F4.145.9 (antibody, human IgG1, V domains shown, human-murine chimeric antibody, human IgG1) VH: EVQLVESGGGLVKPGGSLKLSCAAAGFAFSSYDMSWVRQIPEKRLEWVAYISAGGGNTYFLDTVKGRFTISRDHAKNTLSLQMSSLKSEDTAMYFCVRHGDYYRYFYAMDYWGQGSSVTVSS VL: DIVMTQSHKFMSTSVGDRVSITCKASQDVGTAVAWSQQKPGQSPKLLIYWASTRHTGVPDRFTGSGSGTDFTLTISNVQSEDLADYFCQQFVTYPYTFGGGTKLEIK
9 | no binding | 0.05 | 2.01 | no binding | 1.28 | 0.07 | 2.07 | 0.26 | 2.12 | ~0.06 nM | F4.152.7 (antibody, human IgG1, V domains shown, human-murine chimeric antibody, human IgG1) VH: QVQLQQPGAELVKPGASVKLSCKASGYTFTSYWMHWVKQRPGQGLEWIGEIDPSDSYTNYNQKFKGKATLTADKSSSTAYMQLSGLTSEDSAVYHCARGGDYDGYYVMDYWGQGTSVTVSS VL: EIVLTQSPTTMAASPGEKITITCSASSSISSNYLHWYQQKPGFSPKLLIYRTSNLASGVPARFSGSGSGTSYSLTIGTMEADDVATYYCQQGSYIPRIFTFGSGTKLEIK
10 | no binding | 0.08 | 1.76 | no binding | 1.05 | 0.11 | 1.56 | 0.29 | 1.55 | ~0.06 nM | F5.2.9 (antibody, human IgG1, V domains shown, human-murine chimeric antibody, human IgG1) VH: QVTLKESGPGILQPSQTLSLTCSFSGFSLSTFGLGVGWVRQPSGKGLEWLAHIWWDDDKYYNPALKSRVTVSKETSKNQVFFKIANVDTADSATYYCARLSRGLRRDVVYAMDHWGQGTSVTVSS VL: DIQMTQTTSSLSASLGDRVTISCRASQDISNYLNWYQQKPDGSVKLLISYVSRLQSGVPSRFRGSGSGTDYSLTISNLDQEDIATYFCQQGIAFPYTFGGGTKLDIK

Reference: patent publication US20250042994A1 (HAINAN SIMCERE ZAIMING PHARMACEUTICAL, published 2025)
